This is an account of results in publication PMC8584306, “Characterization of Novel Pathogenic Variants Causing Pyridox(am)ine 5′-Phosphate Oxidase-Dependent Epilepsy” (International Journal of Molecular Sciences, 2021).

Data set [1] has as its target T1, pyridox(am)ine 5′-phosphate oxidase (PNPO) (Homo sapiens, UniProt Q9NVS9).
T1 construct: homodimer with FMN
T1 sequence (Q9NVS9 1-261): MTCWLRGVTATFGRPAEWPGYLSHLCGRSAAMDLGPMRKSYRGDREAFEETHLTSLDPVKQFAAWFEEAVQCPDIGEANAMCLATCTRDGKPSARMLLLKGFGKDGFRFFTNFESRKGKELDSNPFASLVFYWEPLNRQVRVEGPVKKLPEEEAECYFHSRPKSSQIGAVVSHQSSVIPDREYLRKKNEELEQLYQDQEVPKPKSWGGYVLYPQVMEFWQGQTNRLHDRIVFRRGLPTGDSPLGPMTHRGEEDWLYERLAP
Description: differential scanning fluorimetry. The conditions noted are these: equimolar FMN added to 2 µM purified enzyme (already FMN-bound); range given for all PNPO forms. In kind it is binding. An excerpt:
differential scanning fluorimetry on pyridox(am)ine 5′-phosphate oxidase (PNPO) | equimolar amount of FMN stabilizes all the PNPO forms by increasing the Tm
Background: In DSF a fluorescence change marks the thermal transition of the protein.

Data set [2] deals with the molecule itself. Description: SEC; gel filtration on a Superdex 200 10/300 GL column, as described previously [20]; elution profiles compared with the wild type. A general note: Size exclusion chromatography separates by hydrodynamic size, large species first.

Regarding `Cc1cc2nc3c(=O)[nH]c(=O)nc-3n(C[C@H](O)[C@H](O)[C@H](O)COP(=O)(O)O)c2cc1C` [FMN], the “increase in Tm” value in data set [1] is 2–3 °C.

B1: pyridox(am)ine 5′-phosphate oxidase, wild type (enzyme, human)
chain: MTCWLRGVTATFGRPAEWPGYLSHLCGRSAAMDLGPMRKSYRGDREAFEETHLTSLDPVKQFAAWFEEAVQCPDIGEANAMCLATCTRDGKPSARMLLLKGFGKDGFRFFTNFESRKGKELDSNPFASLVFYWEPLNRQVRVEGPVKKLPEEEAECYFHSRPKSSQIGAVVSHQSSVIPDREYLRKKNEELEQLYQDQEVPKPKSWGGYVLYPQVMEFWQGQTNRLHDRIVFRRGLPTGDSPLGPMTHRGEEDWLYERLAP
notes: human pyridox(am)ine 5′-phosphate oxidase (PNPO), recombinant; The vector pET28-PNPO is named only for the variants; also called PNPO; WT; source: recombinant, purified by the protocol of [4]
What is called stoichiometry N is a count of units in the complex or per binding partner. B1: the “stoichiometry N” value in data set [2] was 2.

B2: pyridox(am)ine 5′-phosphate oxidase R161C variant (enzyme, human)
chain: MTCWLRGVTATFGRPAEWPGYLSHLCGRSAAMDLGPMRKSYRGDREAFEETHLTSLDPVKQFAAWFEEAVQCPDIGEANAMCLATCTRDGKPSARMLLLKGFGKDGFRFFTNFESRKGKELDSNPFASLVFYWEPLNRQVRVEGPVKKLPEEEAECYFHSCPKSSQIGAVVSHQSSVIPDREYLRKKNEELEQLYQDQEVPKPKSWGGYVLYPQVMEFWQGQTNRLHDRIVFRRGLPTGDSPLGPMTHRGEEDWLYERLAP
notes: human PNPO, patient variant R161C made by site-directed mutagenesis in pET28-PNPO; also called PNPO R161C; source: E. coli Rosetta (DE3), purified as described in [4]
As to B2, in data set [2], the “stoichiometry N” value amounted to 2.

B3: pyridox(am)ine 5′-phosphate oxidase P213S variant (enzyme, human)
chain: MTCWLRGVTATFGRPAEWPGYLSHLCGRSAAMDLGPMRKSYRGDREAFEETHLTSLDPVKQFAAWFEEAVQCPDIGEANAMCLATCTRDGKPSARMLLLKGFGKDGFRFFTNFESRKGKELDSNPFASLVFYWEPLNRQVRVEGPVKKLPEEEAECYFHSRPKSSQIGAVVSHQSSVIPDREYLRKKNEELEQLYQDQEVPKPKSWGGYVLYSQVMEFWQGQTNRLHDRIVFRRGLPTGDSPLGPMTHRGEEDWLYERLAP
notes: human PNPO, patient variant P213S made by site-directed mutagenesis in pET28-PNPO; also called PNPO P213S; source: E. coli Rosetta (DE3), purified as described in [4]
For B3, in data set [2], the “stoichiometry N” value was found to be 2.

B4: pyridox(am)ine 5′-phosphate oxidase D33V variant (enzyme, human)
chain: MTCWLRGVTATFGRPAEWPGYLSHLCGRSAAMVLGPMRKSYRGDREAFEETHLTSLDPVKQFAAWFEEAVQCPDIGEANAMCLATCTRDGKPSARMLLLKGFGKDGFRFFTNFESRKGKELDSNPFASLVFYWEPLNRQVRVEGPVKKLPEEEAECYFHSRPKSSQIGAVVSHQSSVIPDREYLRKKNEELEQLYQDQEVPKPKSWGGYVLYPQVMEFWQGQTNRLHDRIVFRRGLPTGDSPLGPMTHRGEEDWLYERLAP
notes: human PNPO, patient variant D33V made by site-directed mutagenesis in pET28-PNPO; also called PNPO D33V; source: E. coli Rosetta (DE3), purified as described in [4]
On to B4, for which the “stoichiometry N” value in data set [2] was determined as 2.

B5: pyridox(am)ine 5′-phosphate oxidase E50K variant (enzyme, human)
chain: MTCWLRGVTATFGRPAEWPGYLSHLCGRSAAMDLGPMRKSYRGDREAFEKTHLTSLDPVKQFAAWFEEAVQCPDIGEANAMCLATCTRDGKPSARMLLLKGFGKDGFRFFTNFESRKGKELDSNPFASLVFYWEPLNRQVRVEGPVKKLPEEEAECYFHSRPKSSQIGAVVSHQSSVIPDREYLRKKNEELEQLYQDQEVPKPKSWGGYVLYPQVMEFWQGQTNRLHDRIVFRRGLPTGDSPLGPMTHRGEEDWLYERLAP
notes: human PNPO, natural variant E50K made by site-directed mutagenesis in pET28-PNPO; also called PNPO E50K; source: E. coli Rosetta (DE3), purified as described in [4]
Turning to B5, the “stoichiometry N” value in data set [2] came to 2.
